{"source": "patent US20080166345A1", "about": "“MEDICAMENTS COMPRISING GENE RECOMBINANT ANTIBODY AGAINST GANGLIOSIDE GD3” (KYOWA HAKKO KOGYO CO., LTD., priority 2001, published 2008)", "key": {"[1]": {"system": "GD3 expressing B16 cell B16•29-10", "assay": "Antitumor effects of KM871 with human IL-2, mouse syngeneic graft model", "type": "in vivo, C57 BL/6 mouse", "details": "FIG. 4; KM871 50 μg/day, IL-2 10 μg/day, days 6-14, tail vein", "description": "Six days after the tumor inoculation, the tumor diameter was measured using slide calipers to calculate the tumor volume by the following equation, and individuals having the value within the range of 10 to 80 mm^3 were selected.\nTumor volume=(width)^2×length×0.5\nThey were divided into groups in such a manner that the average tumor volume became uniform, and then the following administration groups of A to D were arranged to carry out continuous administration of the following agents from the tail vein once a day for 8 days (from the 6th day to 14th day).\nIL-2 (Human Recombinant IL-2, Manufactured by Peprotech) Alone Group:\nThe test was carried out using 5 animals for each group. Each agent was prepared to 200 μl per animal by diluting with a citrate buffer (an aqueous solution of 10 mM citric acid and 150 n sodium chloride, adjusted to pH 6 with sodium hydroxide). From the 6th day after the inoculation, the tumor volume was periodically measured, and the antitumor effects were judged by comparing the mean value of specific volume V/V0 in each group."}, "B16-29-10": {"system": "B16-29-10", "assay": "Fluorescent antibody technique (flow cytometer), GD3 synthase transfectant", "type": "binding, mouse", "details": "antibody 5 μg/ml; FIG. 3", "experimental": "(§1) Each of 1×10^6 cells of the GD3 synthase gene transfectants B16-8-3 and B16-29-10 obtained in b. of the item (2) of Example 1 and the parent cell line B16-F10 cell were suspended in PBS, put into a microtube (manufactured by Treff) and centrifuged (2,000 rpm for 2 minutes) for washing the cells, 50 μl of the anti-GD3 human chimeric antibody KM871 (a solution prepared by adjusting to 5 μg/ml with 1% BSA-PBS, negative control was 1% BSA-PBS alone) was added thereto, followed by stirring, and the reaction was carried out at 4° C. for 1 hour. After the reaction and subsequent washing with PBS by centrifugation three times, 100 μl of biotin-labeled goat anti-human IgG (H+L) solution (manufactured by VECTOR, used by diluting 400 folds with 1% BSA-PBS) was added thereto, followed by stirring, and the reaction was carried out at 4° C. for 1 hour. After washing with PBS by centrifugation three times, 100 μl of a streptoavidin-labeled Cy5 pigment solution (Streptoavidin-RED670 manufactured by GIBCO, used by diluting 100 folds with 1% BSA-PBS) was added thereto, followed by stirring, and the reaction was carried out at 4° C. for 30 minutes. After the reaction and subsequent washing with PBS by centrifugation three times, the cells were again suspended in PBS to carry out the analysis using a flow cytometer EPICS Elite (manufactured by COULTER)."}, "B16-8-3": {"system": "B16-8-3", "assay": "Fluorescent antibody technique (flow cytometer), GD3 synthase transfectant", "type": "binding, mouse", "details": "antibody 5 μg/ml; FIG. 3", "experimental": "as §1"}, "[2]": {"system": "human melanoma culture cell line G-361", "assay": "In vitro cytotoxic activity (ADCC activity), 51Cr release", "type": "cell-based", "details": "FIG. 25", "experimental": "Each of human melanoma culture cell lines, G-361 (ATCC CRL 1424) and SK-MEL-28 (ATCC HTB72), was cultured in RPMI1640-FBS(10) medium and adjusted to 1×10^6 cells, and the cells were isotope-labeled by adding 1.85 MBq equivalent of a radioactive substance Na2^51CrO4 and carrying out the reaction at 37° C. for 1 hour. After the reaction, the cells were washed three times by their suspension in RPMI1640-FBS(10) medium and centrifugation, re-suspended in the medium and then incubated in ice at 4° C. for 30 minutes to thereby spontaneously release the radioactive substance. After centrifugation, the cells were adjusted to 2×10^5 cells/ml by adding 5 ml of RPMI1640-FBS(10) medium and used as the target cell suspension.\nHealthy human vein blood (50 ml) was collected, and 0.5 ml of heparin sodium (manufactured by Takeda Pharmaceutical) was gently added thereto. The resulting mixture was centrifuged (1,500 to 1,800×g for 30 minutes) using Polymorphprep (manufactured by Nycomed Pharma AS) in accordance with the manufacturers instructions to separate a mononuclear cell layer. […]\nInto each well of a 96 well U bottom plate (manufactured by Falcon), 50 μl of the target cell suspension prepared in “a.” was dispensed (1×10^4 cells/well). […] After the reaction, the plate was centrifuged and the amount of ^51Cr in the supernatant was measured by a γ-counter. The amount of the spontaneously dissociated ^51Cr was calculated by carrying out the same procedure using the medium alone instead of the effector cell suspension and antibody solution and measuring the amount of ^51Cr in the supernatant. The amount of the total dissociated ^51Cr was calculated by carrying out the same procedure by adding the medium alone instead of the antibody solution, and 5 N sodium hydroxide instead of the effector cell suspension, and measuring the amount of ^51Cr in the supernatant. The ADCC activity was calculated by the following equation."}}}
{"molecule": "KM871: anti-GD3 human chimeric antibody; VH SEQ ID NO:49, VL SEQ ID NO:50, human IgG1 and κ C regions (antibody, listed as Mus musculus, V domains shown, human IgG1 and kappa constant regions) VH: EVTLVESGGDFVKPGGSLKVSCAASGFAFSHYAMSWVRQTPAKRLEWVAYISSGGSGTYYSDSVKGRFTISRDNAKNTLYLQMRSLRSEDSAMYFCTRVKLGTYYFDSWGQGTTLTVSS VL: DIQMTQTASSLPASLGDRVTISCSASQDISNYLNWYQQKPDGTVKLLIFYSSNLHSGVPSRFSGGGSGTDYSLTISNLEPEDIATYFCHQYSKLPWTFGGGTKLEIKR", "values": [{"measurement": "tumor growth inhibitory effects (mean V/V0)", "setting": "[1]", "value": "antitumor effects were not found"}, {"measurement": "reactivity with cells", "setting": "B16-29-10", "value": "reacted"}, {"measurement": "reactivity with cells", "setting": "B16-8-3", "value": "reacted"}, {"measurement": "difference in ADCC cytotoxic activity among KM871, KM8869, KM8870 and KM8871", "setting": "[2]; G-361 and SK-MEL-28", "value": "difference in the cytotoxic activity was not found"}, {"measurement": "ADCC activity", "setting": "[2]; antibody 0.05 to 50 μg/ml, effector:target 50:1", "value": "strong ADCC activity"}]}
